Data as given in patent US20100093623A1, “COMPOSITIONS AND METHODS FOR […]-LIKE RECEPTOR ACTIVITY AND USES THEREOF” (Burnham Institute for Medical Research, priority 2008, published 2010).
Several values for one entry are separate records, joined by “and”; a condition that tells them apart may be missing. Equal entries are not always repeated. Entries after “also recorded” stand apart in the source; their conditions may differ. No end group written: not given here.

How the values were obtained:
NLRP1 [1] = target: T1, NLRP1 (Homo sapiens, UniProt Q9C000); assay: NLRP1 oligomerization induced by MDP and ATP, 2D native/SDS gel electrophoresis; format: biochemical; details: protein at excess (1/10 molar ratio)
T1 sequence (Q9C000 1-1473): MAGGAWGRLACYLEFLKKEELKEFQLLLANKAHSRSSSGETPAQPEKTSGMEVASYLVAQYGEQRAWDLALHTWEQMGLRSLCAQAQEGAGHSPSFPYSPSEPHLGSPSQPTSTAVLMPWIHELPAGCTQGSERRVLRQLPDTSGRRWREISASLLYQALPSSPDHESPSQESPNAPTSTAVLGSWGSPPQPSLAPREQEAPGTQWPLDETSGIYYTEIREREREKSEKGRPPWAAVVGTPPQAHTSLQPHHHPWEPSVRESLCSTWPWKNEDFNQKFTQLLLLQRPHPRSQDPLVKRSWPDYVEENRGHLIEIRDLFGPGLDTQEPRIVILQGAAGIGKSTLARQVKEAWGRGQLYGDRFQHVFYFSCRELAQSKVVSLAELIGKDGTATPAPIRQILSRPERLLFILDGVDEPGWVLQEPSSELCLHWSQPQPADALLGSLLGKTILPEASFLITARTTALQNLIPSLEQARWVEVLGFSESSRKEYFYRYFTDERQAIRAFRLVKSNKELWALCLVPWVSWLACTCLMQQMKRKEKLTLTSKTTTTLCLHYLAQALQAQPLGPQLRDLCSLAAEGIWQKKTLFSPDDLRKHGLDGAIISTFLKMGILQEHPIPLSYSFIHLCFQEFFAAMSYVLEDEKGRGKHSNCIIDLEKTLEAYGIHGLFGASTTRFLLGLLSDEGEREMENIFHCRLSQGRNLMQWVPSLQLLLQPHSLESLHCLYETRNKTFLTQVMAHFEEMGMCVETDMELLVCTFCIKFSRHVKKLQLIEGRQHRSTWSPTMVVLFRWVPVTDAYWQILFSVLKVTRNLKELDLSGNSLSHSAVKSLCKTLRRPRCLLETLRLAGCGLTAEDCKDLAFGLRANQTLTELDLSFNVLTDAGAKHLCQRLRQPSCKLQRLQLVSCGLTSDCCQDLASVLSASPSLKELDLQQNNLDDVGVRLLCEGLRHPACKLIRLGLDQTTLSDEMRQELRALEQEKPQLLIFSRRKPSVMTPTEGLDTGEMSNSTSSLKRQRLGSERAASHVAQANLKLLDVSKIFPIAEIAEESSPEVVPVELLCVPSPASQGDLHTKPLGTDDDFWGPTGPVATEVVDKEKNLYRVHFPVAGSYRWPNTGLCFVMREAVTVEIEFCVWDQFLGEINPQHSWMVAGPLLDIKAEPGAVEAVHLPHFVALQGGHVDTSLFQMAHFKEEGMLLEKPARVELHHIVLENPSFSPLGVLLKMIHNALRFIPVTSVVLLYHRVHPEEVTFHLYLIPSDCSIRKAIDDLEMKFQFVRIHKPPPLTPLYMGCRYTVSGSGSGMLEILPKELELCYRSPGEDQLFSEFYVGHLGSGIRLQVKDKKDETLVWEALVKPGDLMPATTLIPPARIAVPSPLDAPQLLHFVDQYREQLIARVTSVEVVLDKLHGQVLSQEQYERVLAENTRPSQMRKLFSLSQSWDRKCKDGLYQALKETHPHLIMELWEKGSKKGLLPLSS
Description: Electrophoresis. Samples were incubated with protein solubilizing solution (40 mM 6-aminocaproic acid, 20 mM Bis-tris) for 30 min at 4° C., mixed with loading buffer (1M 6-aminocaproic acid, 5% Serva blue G), and applied to acrylamide-bis gradient (4-20%) gels (Schagger et al., (1994) Anal Biochem 217, 220-30). Bands of gels corresponding to the entire lane were excised from top to the bottom, incubated 45 min at 25-27° C. in denaturating buffer (1% β-mercaptoethanol, 10% SDS), then washed twice in equilibrating buffer (50 mM Tris. 1% SDS). Bands from gels were set horizontally on a SDS-acrylamide gel, and proteins were separated by electrophoresis (second dimension), then stained with Sypro Ruby. Molecular weight markers included Thyroglobuline, Apoferritin, β-Amylase and BSA (Sigma).
Oligomerization of NLRP1 induced by MDP and ATP can be monitored using 2D gel-electrophoresis analysis, in which the first dimension is non-denaturing and thus preserves macromolecular complexes during electrophoresis and the second dimension contains SDS for subsequent identification of proteins based on their known molecular mass (Faustin, 2007). For these experiments, NLRP1 monomers were incubated with various proteins (GST, GST-Bcl-XL, His6-Bcl-XLΔLoop) at excess, then MDP and ATP were added to induce oligomerization (FIG. 15). […]

NLRP1 [2] = target: T1, NLRP1; assay: FITC-ATP binding to NLRP1 by fluorescence polarization assay (FPA); details: protein 1 μM at excess; NLRP1 0.125 μM; FITC-ATP 10 nM; MDP-LD 1 μM
NLRP1 [3] = target: T1, NLRP1; assay: in vitro reconstituted NLRP1 inflammasome: Caspase-1 activity by hydrolysis of Ac-WEHD-AMC; format: biochemical; details: for concentration-dependence of inhibition of NLRP1-induced Caspase-1 activity: various concentrations of protein or peptide, NLRP1 8.5 nM; for IC50: synthetic Bcl-2 peptides, various amounts, sigmoidal fit, read-out: IC50 (concentration to inhibit NLRP1-induced Caspase-1 activity by 50%); for Km: GST-Bcl-2 or GST-Bcl-XL 2 nM, control without inhibitor 2.62±0.35 μM, read-out: Km of Caspase-1 for its substrate Ac-WEHD-AMC in presence of inhibitor; for reduction of affinity (Km) of Caspase-1 for Ac-WEHD-AMC compared to control: in presence of Bcl-2 or Bcl-XL; for Ki: recombinant GST-fusion protein, calculated from Km with/without 2 nM inhibitor, competitive inhibition equation, read-out: inhibitory constant (Ki) for suppression of NLRP1 (NLRP1-induced Caspase-1 activation); for mechanism of NLRP1 inhibition (Lineweaver-Burke analysis): x-axis intercept changed, y-axis intercept unchanged
NLRP1ΔLRR = assay: Caspase-1 activation by NLRP1ΔLRR mutant; format: biochemical; details: peptide 50 nM; Ac-WEHD-CHO 10 nM; NLRP1ΔLRR 8.5 nM
Description: (§1) FIGS. 16A-16E show Bcl-2 Loop peptide inhibits NLRP1. […] Asterisk indicates p<0.05. (B) Purified active p10/p20 Caspase-1 (5 nM) was incubated with or without Bcl-2 Loop peptide 35-83 or Ac-WEHD-CHO (10 nM). […] Asterisks indicate p<0.05.
To characterize the sequence of the Bcl-2 loop responsible for inhibiting NLRP1, a series of overlapping 20′mer peptides corresponding to the 35-83 region were synthesized and tested their effects on NLRP1-mediated Caspase-1 activation. […] The effects of the full-loop peptide (35-83) and the active segment (71-90) were specific, as determined by experiments using a NLRP1 mutant lacking the LRRs. […] Finally, the concentration-dependence of NLRP1 inhibition by the 35-83 and 71-90 loop peptides were compared.

Caspase-1 = target: T2, Caspase-1 (Homo sapiens, UniProt P29466); assay: activity of purified active p10/p20 Caspase-1 (direct effect); format: biochemical; details: active p10/p20 Caspase-1 5 nM; test protein/peptide at excess; Ac-WEHD-CHO 10 nM
T2 construct: fully active, proteolytically processed Caspase-1 comprised of p20 and p10 catalytic subunits purified from bacteria; made in house; host or cells: bacteria
T2 sequence (P29466 120-297 limits assumed): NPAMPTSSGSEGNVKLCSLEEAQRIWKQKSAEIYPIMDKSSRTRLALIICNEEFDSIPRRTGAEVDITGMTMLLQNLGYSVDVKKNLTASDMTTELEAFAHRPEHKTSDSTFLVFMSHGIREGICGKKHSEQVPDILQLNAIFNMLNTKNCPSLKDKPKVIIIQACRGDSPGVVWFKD
T2 sequence (P29466 317-404 limits assumed): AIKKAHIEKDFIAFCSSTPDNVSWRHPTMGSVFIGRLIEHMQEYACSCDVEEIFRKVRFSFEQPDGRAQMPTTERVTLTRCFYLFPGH
Description: as §1
Caspase activity measurements. […] Proteins were mixed in Caspase-1 buffer (100 mM HEPES, [pH 7.5], 10% Sucrose, 0.1% CHAPS, 1 mM Dithiothreitol) in a final volume of 10 μl in 96-well plates. Various activators were added (ATP, Mg^2+, MDP-LD), adjusting final volume with water. Samples were then incubated for 30 min at 37° C. and Caspase-1 activity was measured using 20 μM fluorometric substrate Ac-WEHD-AMC (Calbiochem). Release of AMC product was monitored continuously by spectrofluorometry in kinetic mode over 1 h at 25-27° C. Rates of catalysis were calculated using the initial slope and Caspase activity was expressed as the change in fluorescence over time derived from the linear phase of reactions. Data were analyzed using the PRISM Statistics software, employing an unpaired t test.
To exclude a direct effect of Bcl-2 and Bcl-XL on Caspase-1, as opposed to NLRP1, the effects of these anti-apoptotic proteins were tested on fully active, proteolytically processed Caspase-1 comprised of p20 and p10 catalytic subunits purified from bacteria (FIG. 11).

NLRP1 [4] = target: T1, NLRP1; assay: NLRP1-mediated proteolytic processing of pro-Caspase-1 (anti-p10 immunoblot); format: biochemical; details: molar ratio NLRP1/protein 1/5

| Substance | oligomerization of NLRP1 induced by MDP/ATP (NLRP1 [1]) | reduction of FITC-ATP binding to NLRP1 (NLRP1 [2]) | concentration-dependence of inhibition of NLRP1-induced Caspase-1 activity (NLRP1 [3]) | Caspase-1 activation by NLRP1ΔLRR (NLRP1ΔLRR) | direct effect on activity of fully active processed Caspase-1 (Caspase-1) | IC50 (NLRP1 [3]) | MDP/ATP-induced proteolytic processing of pro-Caspase-1 to cleaved p10 subunit (NLRP1 [4]) | Km (NLRP1 [3]) [µM] | reduction of affinity (Km) of Caspase-1 for Ac-WEHD-AMC compared to control (NLRP1 [3]) [fold] | Ki (NLRP1 [3]) | mechanism of NLRP1 inhibition (Lineweaver-Burke analysis) (NLRP1 [3]) |
| --- | --- | --- | --- | --- | --- | --- | --- | --- | --- | --- | --- |
| GST: control protein [reference compound] | not affected | negligible effects |  |  |  |  |  |  |  |  |  |
| YDNREIVMKYIHYKLSQRGYEW (Synthetic Bcl-2 Loop peptides) [Bcl-2 BH4 domain 9-30, control peptide, reference compound] |  |  | negligible activity |  |  |  |  |  |  |  |  |
| acetyl-Tryptophanyl-Glutamyl-Histidinyl-Aspartyl-aldehyde (Ac-WEHD-aldehyde; SMILES CC(=O)N[C@@H](Cc1c[nH]c2ccccc12)C(=O)N[C@@H](CCC(=O)O)C(=O)N[C@@H](Cc1c[nH]cn1)C(=O)N[C@H](C=O)CC(=O)O) [Ac-WEHD-CHO, reference compound] |  |  |  | completely neutralized Caspase-1 activity | completely inhibited; also recorded: potently suppressed the activity of this protease |  |  |  |  |  |  |
| PLQTPAAPGAAAGPALSPVP [Bcl-2 71-90] |  |  | reducing Caspaes-1 activity to background levels | neither the 35-83 nor the 71-90 loop peptides suppressed Caspase-1 activation by NLRP1ΔLRR |  | 9.92 nM and ~10 nM |  |  |  |  |  |
| Bcl-2: anti-apoptotic protein; recombinant GST-fusion lacking C-terminal transmembrane domain (SEQ ID NO:3/4) |  | ~60% | essentially complete inhibition |  | neither Bcl-2 nor Bcl-XL suppressed Caspase-1 activity |  | inhibited | 5.04 ± 0.5 | 2 | ~10 nM and 8.23 nM and 10 nM | competitive inhibitors of NLRP1 |
| VGAAPPGAAPAPGIFSSQPGHTPHPAASRDPVARTSPLQTPAAPGAAAG [Bcl-2 Loop 35-83] |  |  | reducing Caspaes-1 activity to background levels | neither the 35-83 nor the 71-90 loop peptides suppressed Caspase-1 activation by NLRP1ΔLRR | did not directly inhibit Caspase-1 | 11.4 nM and ~12 nM |  |  |  |  |  |
| Bcl-XL: anti-apoptotic protein; recombinant GST-fusion lacking C-terminal transmembrane domain | suppressed oligomerization of NLRP1 | ~60% | essentially complete inhibition |  | neither Bcl-2 nor Bcl-XL suppressed Caspase-1 activity |  | inhibited | 6.05 ± 0.24 | 2 | ~10 nM and 10 nM | competitive inhibitors of NLRP1 |
